Data from the DeepSol protein solubility set.

Experiment: soluble on expression in E. coli; label from the status in PepcDB or PDB records

Soluble on expression in E. coli, not soluble:
MGSDKIHHHHHHMSDITHTGEHQALVVGATGIIGSAILHRLGAAEGWTAIGLSRSRRVAEGRARMLEVDLLDPQDCARKLGALNRITHIFYAAYQARPSRAEEVAPNVQMLRNVVDAVSGRARGLKKIVLITGAKFYGIQWGRVKTPMKETDARQLPPNFYYDQEDFLRDAQRQADWHWCNLIPPFVSGYSVGNPMNLVMAIGVFASLSRELNLPLRFPGLPGAWSALQQIADAEQIAAAAHWAATSPAANNEAFNVTNGDPIRWENFWPAVAGHFGMRLEAPKTLPLGRLMADNEAAWARMVERYRLQAASIAKLVDWNWADYMFRMEYDVLMETGKIRRAGFQDCVDTTERFLARFRQLQQQQIIPR
MGSDKIHHHHHHMSDLPERLHDIIRRRNMVLGPGYQFSETIPVEFVSSFGAHLIDSDGNDYLDAFNNVQGVGHAHRHVADAVARQIAAINTDTRYPQEALVAYAERLLATFPAELSKLSLPCTGSEANDLAVRVARYHTGGEGIIVTRWAFHGRTREVASFSPMLGAGSPLGPNVRLIAAPDPRFCGPQQSLENYMRDQVRSAIVDLERHGYRLAALVADSAFTSDGIFTHPVGFLQAMVDEVHAAGGLHIADEVQSGFAQLGDSMWGFSRHGVVPDIVTMGKAIGNGFPISGVVFRPEVSDEFGQKVSYFNTLGGRSLSIAAASAVLDVFEQENVRERVAVNGAALQSGLETLARESPYVAEIRGSGLYLGVEIVKDRETLEPDPIRCESIIKDLRDRRVLISRTGSSGNVLKVRPPVAFTAADVSRFLETFAIVAKQRL
MGSDKIHHHHHHMSDRNTSNSLTLKERMLSAGAGSVLTSLILTPMDVVRIRLQQQQMIPDCSCDGAAEVPNAVSSGSKMKTFTNVGGQNLNNAKIFWESACFQELHCKNSSLKFNGTLEAFTKIASVEGITSLWRGISLTLLMAIPANMVYFSGYEYIRDVSPIASTYPTLNPLFCGAIARVFAATSIAPLELVKTKLQSIPRSSKSTKTWMMVKDLLNETRQEMKMVGPSRALFKGLEITLWRDVPFSAIYWSSYELCKERLWLDSTRFASKDANWVHFINSFASGCISGMIAAICTHPFDVGKTRWQISMMNNSDPKGGNRSRNMFKFLETIWRTEGLAALYTGLAARVIKIRPSCAIMISSYEISKKVFGNKLHQ
MGSDKIHHHHHHMSDSIYSIGTQGQPWTDEDKDLWLSKQVIKRSYQDEVLSKFESVTSSFDMIQYGSLSIDESRYPLYAMRSKNWQSKNKTVLVTGGVHGYETSGVQGAIRFLETSAKDFSQRFNIIVVPCVSPWGYETINRWNNEAIDPNRSFYLDSPAQESAALMSFINELDVNIAMHIDLHETTDTDNSEFRPALAARDAIEQKNWNIPDGFYLVGDSTKPAADFQGAINQAVAKVTHIAPEDSNGKLIGVDIEQFGVINYAGRELGLCMGLTDAPYVTTTEVYPDSPLVDDENCITAQVAAISAAITFI
MGSDKIHHHHHHMSEEKNTAIDLKNLKAGGFIKERGKDLFTVRLRVPGGRLPVGRLKKIAEVAEKYGQGMVHLSVRQSVELININFRDFDAVVAELGEGTQKVASCGARVRVPTACGGCEYNPNGLVDTQKSALEVDEKLFGIPTGHHKFKVGFAGCPFDCPKSATNDVGFQGAVWPVLSADHCIGCGLCAKSCTEDAIAMGDNGKPLFIPANCLYCGDCLKVCPTEAWRAGKKGYTVRIGGKWGRRPLVGTLFAEFLPEDQVVDFIAAVLGWYQEKAEGQGRIRLGDVIRAQGPEALLARLRERFPAFVVNATIAPQAIATQVGKEKQAHDNR
MGSDKIHHHHHHMSEISAIWERIEAWHAANDQTENLNPGATAEALAQAEKDMGLTFPPEMRESLLRHDGSVDDSWPTGELLSLERMADERKVWMDLLQDGTFDGNASHNESSEALQPGWWNPAWIPLDADGGGNGAVIDLAPGPQGTVGQVIDMDHEVGPSGPKYVSLAAYLEAMLERLSEAEE
